Key:
[1] = target: IscU (Escherichia coli) (UniProt P0ACD4); settings: cited from earlier work
[2] = target: T1, IscS (E. coli, UniProt P0A6B7 1-404); experiment: NMR titration; competition: 15N HSQC of 100 uM 15N-labelled HscB in complex with unlabelled IscS (1:1), titrated with CyaY or apo-Fdx up to 1:1:3; settings: both partners purified
T1 construct: IscS, pyridoxal phosphate dependent cysteine desulfurase of the isc operon, E. coli; subcloned by PCR from bacterial genomic DNA; For MST only, IscS was labelled with the amine-reactive dye NT-647 (about 0.67 dye molecules per IscS, RED-NHS kit); unlabelled in all other experiments; also called desulfurase IscS; wild-type IscS; source: E. coli BL21(DE3), purified (Ni-NTA, TEV cleavage, gel …)

[3] = target: T1, IscS; experiment: MST; IscS labelled with NT-647 at 52 nM, HscB serially diluted 1:1 from 600 uM (12 solutions); 20 mM Tris-HCl pH 8, 150 mM NaCl, 0.5 mM TCEP, 0.05% Tween-20; 25 C; 40-60% LED power, 17% IR-laser power; 1:1 stoichiometry assumed; settings: both partners purified

T1 sequence (P0A6B7 whole entry): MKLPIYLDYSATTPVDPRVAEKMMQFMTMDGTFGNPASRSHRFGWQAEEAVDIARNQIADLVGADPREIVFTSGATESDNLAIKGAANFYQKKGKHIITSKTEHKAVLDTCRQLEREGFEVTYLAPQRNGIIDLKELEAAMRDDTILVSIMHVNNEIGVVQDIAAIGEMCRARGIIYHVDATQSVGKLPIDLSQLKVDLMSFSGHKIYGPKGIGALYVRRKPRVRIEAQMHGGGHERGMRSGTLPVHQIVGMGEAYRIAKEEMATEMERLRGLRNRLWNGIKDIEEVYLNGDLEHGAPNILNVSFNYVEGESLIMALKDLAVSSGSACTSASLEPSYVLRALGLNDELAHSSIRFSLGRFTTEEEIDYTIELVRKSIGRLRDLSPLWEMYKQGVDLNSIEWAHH
IscU (Escherichia coli), sequence (P0ACD4 whole entry): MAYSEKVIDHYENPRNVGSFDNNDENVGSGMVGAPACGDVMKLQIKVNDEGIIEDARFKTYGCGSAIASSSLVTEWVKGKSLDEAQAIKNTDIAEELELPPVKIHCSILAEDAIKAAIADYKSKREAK

For IscS (from UniProt P0A6B7), the Kd [1] is listed as 10 µM.

B1: apo-Fdx (natural protein, E. coli, UniProt P0A9R4 1-111, looked up)
chain: MPKIVILPHQDLCPDGAVLEANSGETILDAALRNGIEIEHACEKSCACTTCHCIVREGFDSLPESSEQEDDMLDKAWGLEPESRLSCQARVTDEDLVVEIPRYTINHAREH
notes: Fdx, ferredoxin of the isc operon, E. coli; subcloned by PCR from bacterial genomic DNA; also called ferredoxin; source: E. coli BL21(DE3), purified (Ni-NTA, TEV cleavage, gel filtration)
B1: binds [2].

B2: HscB (natural protein, E. coli)
chain: MDYFTLFGLPARYQLDTQALSLRFQDLQRQYHPDKFASGSQAEQLAAVQQSATINQAWQTLRHPLMRAEYLLSLHGFDLASEQHTVRDTAFLMEQLELREELDEIEQAKDEARLESFIKRVKKMFDTRHQLMVEQLDNETWDAAADTVRKLRFLDKLRSSAEQLEEKLLDF
notes: HscB, co-chaperone of the isc operon, E. coli; subcloned by PCR from bacterial genomic DNA; Uniformly 15N-labelled (HSQC) or 2H,15N-labelled (cross saturation) for NMR; unlabelled in MST, cross-linking and when added to 15N IscU; also called co-chaperone HscB; source: E. coli BL21(DE3), purified (Ni-NTA, TEV cleavage, gel filtration)
Work on B2 yielded a Kd [3] of 10 to 30 µM.

Reference: PMC5037179 (Frontiers in Molecular Biosciences, 2016)
